Experimental findings from patent US20020150536, “Nucleic acid ligands to integrins” (GILEAD SCIENCES, INC., published 2002) are described below.

Numbering of substitutions follows the chain as printed.

The labels stand for the following.
B1: 15.20 (ssRNA)
RNA: GGGAGACAAGAAUAAACGCUCAAUUCAACGCUGUCCAAGGGCUUAUAUGAGCGCAUUAUACCCUUCGACAGGAGGCUCACAACAGGC
modifications: 2'-F C and U
B2: 15.53 (ssRNA)
RNA: B1 RNA with A37U, U56G, U57G
modifications: 2'-F C and U
B3: 7.54 (ssRNA)
RNA: B1 RNA with A27G, C35U, A55G
modifications: 2'-F C and U
B4: 7.77 (ssRNA)
RNA: B1 RNA with C31A, C35U, C36G, A38G
modifications: 2'-F C and U
B5: 7.38 (ssRNA)
RNA: B1 RNA with A55G
modifications: 2'-F C and U
B6: 15.21 (ssRNA)
RNA: GGGAGACAAGAAUAAACGCUCAACGGUGAAGACCUCUAUUAACAACAUGACCUGCCUGCGUUGUUCGACAGGAGGCUCACAACAGGC
modifications: 2'-F C and U
B7: 15.4 (ssRNA)
RNA: GGGAGACAAGAAUAAACGCUCAAUGAUUUCAUGACUUAUGCCGCCGGCAUGACUUCAAUGACGUUCGACAGGAGGCUCACAACAGGC
modifications: 2'-F C and U
B8: 15.39 (ssRNA)
RNA: GGGAGACAAGAAUAAACGCUCAAUCAAUCUCGGACUAGACUAACGACCUUGGUUGACGCUCAUUCGACAGGAGGCUCACAACAGGC
modifications: 2'-F C and U
B9: 15.3 (17.17) (ssRNA)
RNA: GGGAGACAAGAAUAAACGCUCAAUUCAACGUUGUCCAAGGGCUUAUAUGAGCGGAUUACCCUUCGACAGGAGGCUCACAACAGGC
modifications: 2'-F C and U
B10: 17.8 (ssRNA)
RNA: B9 RNA with C36U
modifications: 2'-F C and U
B11: 15.17 (ssRNA)
RNA: B9 RNA with C36A, U48C, A50G
modifications: 2'-F C and U
B12: 15.10 (ssRNA)
RNA: B9 RNA with U31C, C35U
modifications: 2'-F C and U
B13: 15.7 (ssRNA)
RNA: B9 RNA with A27U, U31A, C36A
modifications: 2'-F C and U
B14: 17.13 (ssRNA)
RNA: B9 RNA with U31C, A50G
modifications: 2'-F C and U
B15: 17.1 (ssRNA)
RNA: B9 RNA with U31C, C36A, G49A
modifications: 2'-F C and U
B16: 15.8 (ssRNA)
RNA: B9 RNA with A27G, U31C, C35U, C36G, U48C
modifications: 2'-F C and U
B17: 15.34 (ssRNA)
RNA: GGGAGACAAGAAUAAACGCUCAAUCCCACCCUGCCUUGUCUGUUUGAUAGAGACACUGUCCUUUUCGACAGGAGGCUCACAACAGGC
modifications: 2'-F C and U
B18: 15.43 (ssRNA)
RNA: GGGAGACAAGAAUAAACGCUCAACGCCGUUAUCACGACGUGCGUUCUGGGCGGUACUCGCGCAUUCGACAGGAGGCUCACAACAGGC
modifications: 2'-F C and U
B19: 7.41 (ssRNA)
RNA: GGGAGACAAGAAUAAACGCUCAAGCGAGCCUAUUGUCUAAGAUGCACCAGGCCUGUUAAGCAUUUCGACAGGAGGCUCACAACAGGC
modifications: 2'-F C and U
B20: 15.19 (ssRNA)
RNA: GGGAGACAAGAAUAAACGCUCAAUGUAGCCGCAUGUCGAGCAGCAAUUCCUGCCAUUGUAGGUUCGACAGGAGGCUCACAACAGGC
modifications: 2'-F C and U
B21: 7.13 (ssRNA)
RNA: B20 RNA with C29U
modifications: 2'-F C and U
B22: 15.13 (ssRNA)
RNA: GGGAGACAAGAAUAAACGCUCAAGCGGGAUUUUCCUGAUCAUCCCACUGAUUCGGGGCCUUACUUCGACAGGAGGCUCACAACAGGC
modifications: 2'-F C and U
B23: 15.18 (ssRNA)
RNA: GGGAGACAAGAAUAAACGCUCAAUUCAACGCUGUGAAGGGCUUAUAUGAGCGGAUUACCCUUCGACAGGAGGCUCACAACAGGC
modifications: 2'-F C and U
B24: 17.2 (ssRNA)
RNA: B23 RNA with A27U
modifications: 2'-F C and U
B25: 17.11 (ssRNA)
RNA: B23 RNA with A27U, G53A
modifications: 2'-F C and U
B26: 15.46 (17.20) (ssRNA)
RNA: B23 RNA with A27G
modifications: 2'-F C and U
B27: 15.50 (17.3) (ssRNA)
RNA: B23 RNA with A27G, U47C
modifications: 2'-F C and U
B28: 15.5 (ssRNA)
RNA: GGGAGACAAGAAUAAACGCUCAAGCAUUCAAAAUUUGCGAGAACGAAUAGAAGUCCGAGAGCCUUCGACAGGAGGCUCACAACAGGC
modifications: 2'-F C and U
B29: 7.66 (ssRNA)
RNA: GGGAGACAAGAAUAAACGCUCAAGUGAACCGAUAAGCGAAAGUAGUACCCCUGCUUGACUACUUUCGACAGGAGGCUCACAACAGGC
modifications: 2'-F C and U
B30: 7.5 (ssRNA)
RNA: GGGAGACAAGAAUAAACGCUCAAGGUAGUAAAUGGACUCCUGCCAUCCAAUACUAUCUCUGAGUUCGACAGGAGGCUCACAACAGGC
modifications: 2'-F C and U

The target of the series is integrin alphaV beta3 (Homo sapiens, UniProt P06756;P06756;P05106 P06756:31-889,P06756:891-1048,P05106:27-788). As to the kind of experiment: microtiter plate, streptavidin-AP; Mg2+, Ca2+, Mn2+, pH 7.5, 37 C. To be noted: label: 5'-biotin. On the procedure: The affinity of individual RNAs and RNA pools for αᵥβ₃ was determined by titration of biotinylated RNA with a small quantity of immobilized integrin. Bound RNA was detected through the biotin moiety. Biotinylated RNA was prepared according to standard transcription protocols, but including a 5-fold molar excess of a 5′-biotin-modified GMP over GTP in the reaction mixture. Methods for synthesizing 5′-biotin-modified guanosine nucleotides are described in WO 98/30720 entitled “Bioconjugation of Oligonucleotides,” specifically incorporated herein by reference in its entirety. The modified nucleotide is incorporated at the 5′ end of the transcript in proportion to its representation in the guanosine pool. 96-well microtiter plates (Immulon 2, Dynatech Laboratories, Inc., Chantilly, Va.) were coated overnight at 4° C. with 100 μL purified αᵥβ₃ at a concentration of 0.25 μg/mL in 20 mM TrisHCl, pH 7.5, 150 mM NaCl, 1 mM MgCl₂, 2 mM CaCl₂, 0.1 mM MnCl₂. Coating concentrations were 0.8 μg/mL for αIIbβ₃ and 0.3 μg/mL for αᵥβ₅. Wells were blocked with 200 μL of a solution of 3% BSA in the same buffer (1 hour at room temperature) then rinsed 3 times with 200 μL binding buffer (50 mM TrisHCl, pH 7.5, 137 mM NaCl, 2.7 mM KCl, 1 mM MgCl₂, 2 mM CaCl₂, 0.1 mM MnCl₂, 0.1% BSA). Individual RNAs or RNA pools were denatured briefly at 93° C. in binding buffer without divalent cations or BSA, then serially diluted in the same buffer. 50 μL binding buffer containing 2×-concentrations of divalent cations and BSA were added to each well, followed by 50 μL RNA dilution. RNAs were allowed to incubate in the integrin-coated wells at 37° C. for 30-60 minutes. Unbound RNAs were removed by 3 rapid washes in binding buffer. To detect bound RNA, 100 μL of a 1:2500 dilution in binding buffer of streptavidin-alkaline phosphatase conjugate (Calbiochem) were incubated in each well for 30 minutes at room temperature, followed by three rapid washes, as above. 100 μL/well p-nitrophenyl phosphate (Sigma Chemical Co., St. Louis, Mo.) was added and incubated at room temperature for 30 minutes. Color development was monitored by absorbance at 405 nm.
Chain of integrin alphaV beta3 (P06756 31-889, chain 1 of 3): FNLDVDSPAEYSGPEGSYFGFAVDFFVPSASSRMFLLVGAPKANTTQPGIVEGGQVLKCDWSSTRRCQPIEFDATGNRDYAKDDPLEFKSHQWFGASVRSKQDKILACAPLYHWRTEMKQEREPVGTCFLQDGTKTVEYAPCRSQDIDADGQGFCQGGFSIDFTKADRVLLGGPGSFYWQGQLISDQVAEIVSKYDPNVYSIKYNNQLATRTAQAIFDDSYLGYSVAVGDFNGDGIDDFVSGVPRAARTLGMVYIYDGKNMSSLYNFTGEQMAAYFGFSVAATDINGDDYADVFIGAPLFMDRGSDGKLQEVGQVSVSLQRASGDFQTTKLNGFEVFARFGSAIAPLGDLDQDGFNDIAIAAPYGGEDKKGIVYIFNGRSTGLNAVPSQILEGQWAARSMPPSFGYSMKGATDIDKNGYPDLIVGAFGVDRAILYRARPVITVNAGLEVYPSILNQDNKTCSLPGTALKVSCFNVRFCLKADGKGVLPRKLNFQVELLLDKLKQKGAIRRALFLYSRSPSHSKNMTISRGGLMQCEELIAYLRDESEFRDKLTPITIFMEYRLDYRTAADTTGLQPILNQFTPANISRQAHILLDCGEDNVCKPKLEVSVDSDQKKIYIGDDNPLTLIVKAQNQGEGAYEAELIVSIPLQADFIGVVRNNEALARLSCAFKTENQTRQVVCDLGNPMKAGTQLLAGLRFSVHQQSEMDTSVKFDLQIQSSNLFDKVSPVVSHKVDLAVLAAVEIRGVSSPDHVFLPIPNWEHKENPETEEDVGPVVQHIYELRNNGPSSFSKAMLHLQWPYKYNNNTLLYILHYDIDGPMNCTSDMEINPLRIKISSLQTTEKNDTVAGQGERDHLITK
Chain of integrin alphaV beta3 (P06756 891-1048, chain 2 of 3): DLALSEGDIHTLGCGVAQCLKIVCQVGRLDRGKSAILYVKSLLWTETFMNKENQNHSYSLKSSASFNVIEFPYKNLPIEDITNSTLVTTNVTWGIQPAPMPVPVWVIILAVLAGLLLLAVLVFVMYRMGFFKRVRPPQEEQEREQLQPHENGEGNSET
Chain of integrin alphaV beta3 (P05106 27-788, chain 3 of 3): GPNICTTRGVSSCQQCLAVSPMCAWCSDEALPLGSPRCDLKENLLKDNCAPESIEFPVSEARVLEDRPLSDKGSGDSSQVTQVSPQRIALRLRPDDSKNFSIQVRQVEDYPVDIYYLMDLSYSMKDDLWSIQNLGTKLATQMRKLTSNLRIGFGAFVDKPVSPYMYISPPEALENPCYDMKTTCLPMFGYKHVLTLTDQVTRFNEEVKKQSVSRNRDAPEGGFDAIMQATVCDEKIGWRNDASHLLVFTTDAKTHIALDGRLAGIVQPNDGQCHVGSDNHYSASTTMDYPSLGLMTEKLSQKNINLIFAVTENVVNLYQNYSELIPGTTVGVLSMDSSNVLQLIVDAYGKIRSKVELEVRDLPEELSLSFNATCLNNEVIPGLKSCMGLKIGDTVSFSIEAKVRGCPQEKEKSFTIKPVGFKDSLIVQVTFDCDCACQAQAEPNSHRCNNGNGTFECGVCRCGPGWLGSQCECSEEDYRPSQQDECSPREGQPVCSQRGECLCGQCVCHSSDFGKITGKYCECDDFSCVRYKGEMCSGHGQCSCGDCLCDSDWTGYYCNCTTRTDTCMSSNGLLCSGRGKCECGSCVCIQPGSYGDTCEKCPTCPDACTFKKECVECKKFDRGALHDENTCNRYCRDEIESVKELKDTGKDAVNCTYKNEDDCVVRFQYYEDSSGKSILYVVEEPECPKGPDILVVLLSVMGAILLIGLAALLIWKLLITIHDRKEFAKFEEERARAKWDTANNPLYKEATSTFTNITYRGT
The Kd is a measure of binding affinity in units of concentration. Consider B1, for which the Kd was determined as 20 nM. As to B2, the Kd came out at 70 nM. Then B3, with 230 nM. Molecule B4 showed a Kd of 770 nM.

For B5, the Kd amounted to 49 nM.

In the case of B6, the dissociation constant (Kd) is 200 nM. Compared with the last molecule, the Kd is about 4.1-fold higher. B7: binding was put at a Kd of 2000 nM. This Kd lies about 10-fold higher than the previous one.

Molecule B8 returned a Kd of 410 nM. Then B9, with 8 nM. Then B10, with 18 nM; and B11, with 4 nM; and B12, with 20 nM. For B13, the affinity, expressed as Kd, was 5 nM. Then B14, with 10 nM; and B15, with 380 nM; and B16, with 5 nM. As for B17, the figure is 190 nM; as for B18, 45 nM; as for B19, more than 1000 nM. Then B20, with 770 nM. B21: the Kd was more than 1000 nM. As for B22, the figure is 790 nM. As for B23, the figure is 2 nM; as for B24, 2 nM. Then B25, with 4 nM. As to B26, the Kd came to 40 nM. Then B27, with 30 nM; and B28, with 4000 nM; and B29, with more than 1000 nM.

On to B30, for which the Kd is more than 1000 nM.
